Among the data in PMC7181697 (2020) are Kd values, retold here.

Among the targets are REV7^K129A (human, UniProt Q9UI95 1-211, K129A); REV7^WT-REV3(1871–2021) (human, UniProt Q9UI95 1-211; O60673 1871-2021); REV7^Y63A (human, UniProt Q9UI95 1-211, Y63A); REV7^W171A (human, UniProt Q9UI95 1-211, W171A).
Experiment in all cases: ITC

Chain of REV7^K129A (Q9UI95 whole entry K129A): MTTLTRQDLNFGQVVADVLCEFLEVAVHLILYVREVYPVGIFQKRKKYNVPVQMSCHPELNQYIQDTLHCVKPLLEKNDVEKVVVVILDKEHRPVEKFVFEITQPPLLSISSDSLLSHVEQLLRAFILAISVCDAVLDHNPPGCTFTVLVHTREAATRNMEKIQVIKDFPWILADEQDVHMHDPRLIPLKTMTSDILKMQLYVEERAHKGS
Chain of REV7^Y63A (Q9UI95 whole entry Y63A): as the sequence (Q9UI95 whole entry K129A) above, with Y63A, A129K counted along it
Chain of REV7^WT-REV3(1871–2021) (Q9UI95 whole entry, chain 1 of 2): as the sequence (Q9UI95 whole entry K129A) above, with A129K counted along it
Chain of REV7^WT-REV3(1871–2021) (O60673 1871-2021, chain 2 of 2): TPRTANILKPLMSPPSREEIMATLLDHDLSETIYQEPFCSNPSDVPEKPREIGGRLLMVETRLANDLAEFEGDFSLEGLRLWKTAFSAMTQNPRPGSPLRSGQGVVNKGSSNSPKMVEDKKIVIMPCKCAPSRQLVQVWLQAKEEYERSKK
Chain of REV7^W171A (Q9UI95 whole entry W171A): as the sequence (Q9UI95 whole entry K129A) above, with A129K, W171A counted along it

B1: REV3(1847-1906) (domain or fragment)
chain: MLTPTPDSSPRSTSSPSQSKNGSFTPRTANILKPLMSPPSREEIMATLLDHDLSETIYQE
Consider B1, for which binding in the assay with REV7^K129A was characterised by a dissociation constant (Kd) of 7.3 nM.

B2: cREV1 CTD (chimeric REV1 CTD: POL κ RIR fused to the N-terminus of REV1 CTD) (other)
chain: SHKKSFFDKKRSERKWGLSSLQSDPAGCVRPPAPNLAGAVEFNDVKTLLREWITTISDPMEEDILQVVKYCTDLIEEKDLEKLDLVIKYMKRLMQQSVESVWNMAFDFILDNVQVVLQQTYGSTLKVT
B2 gave an equilibrium dissociation constant (Kd) in the assay with REV7^WT-REV3(1871–2021) of 1600 nM.

B3: SHLD3(1–82) with C-terminal His6-tag (domain or fragment)
chain: MTTEVILHYRPCESDPTQLPKIAEKAIQDFPTRPLSRFIPWFPYDGSKLPLRPKRSPPVISEEAAEDVKQYLTISEHDAKSH
As for B3, the dissociation constant Kd with REV7^Y63A turned out to be 160 nM; with REV7^W171A it was 170 nM; in the assay with REV7^K129A, 4.8 nM.
